In patent publication US9523084B2, “Phosphodeoxyribosyl transferase mutant enzymes and uses thereof” (Centre National De La Recherche Scientifique, priority 2012, dated 2016):

Assays:
[1] = Standard enzyme assay (HPLC): specific activities of PDT variants with natural purines and pyrimidines; type: biochemical; conditions: for Specific activity: donor 3 mM, acceptor 1 mM; for factor of enhancement of deoxyribose 5-phosphate transferase activity between C and A: upon substitution of F13 to arginine (PDTM3 from PDTM1, PDTM4 from PDTM2)
Experimental: (§1) The standard assay (“first protocol for enzyme assay”) for the different NDTs consisted of 5-15 μg of NDT in 50 mM MES buffer pH 6.0, dNxP (dNMP, or dNDP or dNTP) 3 mM and a base 1 mM in a total volume of 50 μL. Assays were incubated for 60 min at 37° C. The products of the reactions were analyzed each 7 min by Rapid resolution high performance liquid chromatography using a reverse-phase column (ZORBAX Eclipse XDB-C18 2.1*50 mm 1.8 μM) with a flow rate of 0.25 ml/min and a linear gradient of 1-12% CH3CN (2-25% CH3CN or 1-90% CH3CN) in 20 mM triethylammonium acetate, pH 7.5, buffer for 7 min. The low resolution mass spectra of the newly synthesized deoxyribonucleotides were obtained on an Agilent 1200 series LC/MS 6120 quadrupole system using an atmospheric electrospray ionization system.
Unless specifically mentioned, the results presented hereafter have been obtained by using the first protocol for performing the enzyme assay.

[2] = In vitro synthesis of deoxynucleotide analogues: specific activities; type: biochemical
Experimental: as §1
The donor concentration was 3 mM and the acceptor 1 mM except for dCTP 2 mM 5-BrU 1 mM and dAMP 2 mM 5-FU 1 mM. Activities are expressed in nanomoles of deoxynucleotides synthesized per min per mg of protein.

[3] = dAMP + 5-FU → A + 5-F-dUMP, dAMP 2 mM 5-FU 1 mM
[4] = dCMP + 2,6-D → C + 2,6-DMP, donor 3 mM, acceptor 1 mM
[5] = dCMP + 2,6-chloropurine → C + 2,6-dichloropurine 2′-deoxyribose 5′-monophosphate, donor 3 mM, acceptor 1 mM
[6] = dCMP + 5-BrU → C + 5-Br-dUMP, donor 3 mM, acceptor 1 mM
[7] = dCMP + 6-chloropurine → C + 6-chloropurine 2′-deoxyribose 5′-monophosphate, donor 3 mM, acceptor 1 mM

B1: PDTM3: NDT mutant R13 S92, SEQ ID NO:5 (protein)
chain: MPKKTIYFGAGWRTDRQNKAYKEAMEALKENPTIDLENSYVPLDNQYKGIRVDEHPEYLHDKVWATATYNNDLNGIKTNDIMLGVYIPDEESVGLGMELGYALSQGKYVLLVIPDEDYGKPINLMSWGVSDNVIKMSQLKDFNFNKPRFDFYEGAVY
modifications: PDTM3 enzyme mutant
Specific activity ([1]; dAMP + C ⇄ dCMP + A): 34.7 nanomoles of deoxynucleotides synthesized per min per mg of protein | Specific activity ([1]; dAMP + Hx ⇄ dIMP + A): 2 nanomoles of deoxynucleotides synthesized per min per mg of protein | Specific activity ([1]; dCMP + A ⇄ dAMP + C): 79.7 nanomoles of deoxynucleotides synthesized per min per mg of protein | Specific activity ([1]; dCMP + T ⇄ dTMP + C): 18.2 nanomoles of deoxynucleotides synthesized per min per mg of protein | Specific activity ([1]; dGMP + A ⇄ dAMP + G): 8.5 nanomoles of deoxynucleotides synthesized per min per mg of protein | fold lower activity than between C and A ([1]; transfer of deoxyribose 5-phosphate between A and C): two-fold | fold lower activity than between C and A ([1]; transfer of deoxyribose 5-phosphate between C and T): 4 fold | factor of enhancement of deoxyribose 5-phosphate transferase activity between C and A [1]: 50

B2: PDTM4: NDT mutant R13 S92 S123, SEQ ID NO:6 (protein)
chain: MPKKTIYFGAGWRTDRQNKAYKEAMEALKENPTIDLENSYVPLDNQYKGIRVDEHPEYLHDKVWATATYNNDLNGIKTNDIMLGVYIPDEESVGLGMELGYALSQGKYVLLVIPDEDYGKPISLMSWGVSDNVIKMSQLKDFNFNKPRFDFYEGAVY
modifications: PDTM4 enzyme mutant
Specific activity ([1]; dAMP + C ⇄ dCMP + A): 77.6 nanomoles of deoxynucleotides synthesized per min per mg of protein | Specific activity ([1]; dAMP + Hx ⇄ dIMP + A): <0.1 nanomoles of deoxynucleotides synthesized per min per mg of protein | Specific activity ([1]; dCMP + A ⇄ dAMP + C): 170 nanomoles of deoxynucleotides synthesized per min per mg of protein | Specific activity ([1]; dCMP + T ⇄ dTMP + C): 52 nanomoles of deoxynucleotides synthesized per min per mg of protein | Specific activity ([1]; dGMP + A ⇄ dAMP + G): 57 nanomoles of deoxynucleotides synthesized per min per mg of protein | factor of enhancement of deoxyribose 5-phosphate transferase activity between C and A [1]: 50 | activity relative to PDTM3 ([1]; whatever the couple of bases tested): two times more active than PDTM3 | Specific activity [2, 3]: 43 nanomoles of deoxynucleotides synthesized per min per mg of protein | Specific activity [2, 4]: 96 nanomoles of deoxynucleotides synthesized per min per mg of protein | Specific activity [2, 5]: 32 nanomoles of deoxynucleotides synthesized per min per mg of protein | Specific activity [2, 6]: 35 nanomoles of deoxynucleotides synthesized per min per mg of protein | Specific activity [2, 7]: 24 nanomoles of deoxynucleotides synthesized per min per mg of protein

B3: PDTM5: NDT mutant Q13 S92 S123, SEQ ID NO:7 (protein)
chain: MPKKTIYFGAGWQTDRQNKAYKEAMEALKENPTIDLENSYVPLDNQYKGIRVDEHPEYLHDKVWATATYNNDLNGIKTNDIMLGVYIPDEESVGLGMELGYALSQGKYVLLVIPDEDYGKPISLMSWGVSDNVIKMSQLKDFNFNKPRFDFYEGAVY
modifications: PDTM5 enzyme mutant
Specific activity ([1]; dAMP + C ⇄ dCMP + A): 206 nanomoles of deoxynucleotides synthesized per min per mg of protein | Specific activity ([1]; dAMP + Hx ⇄ dIMP + A): <0.1 nanomoles of deoxynucleotides synthesized per min per mg of protein | Specific activity ([1]; dCMP + A ⇄ dAMP + C): 296 nanomoles of deoxynucleotides synthesized per min per mg of protein | Specific activity ([1]; dCMP + T ⇄ dTMP + C): 1.7 nanomoles of deoxynucleotides synthesized per min per mg of protein | Specific activity ([1]; dGMP + A ⇄ dAMP + G): 81 nanomoles of deoxynucleotides synthesized per min per mg of protein | Specific activity [2, 3]: 47 nanomoles of deoxynucleotides synthesized per min per mg of protein | Specific activity [2, 4]: 78 nanomoles of deoxynucleotides synthesized per min per mg of protein | Specific activity [2, 5]: 19 nanomoles of deoxynucleotides synthesized per min per mg of protein | Specific activity [2, 6]: 26 nanomoles of deoxynucleotides synthesized per min per mg of protein | Specific activity [2, 7]: 15 nanomoles of deoxynucleotides synthesized per min per mg of protein

B4: PDTT0: NDT mutant R13 G92 T93 S123, SEQ ID NO:8 (protein)
chain: MPKKTIYFGAGWRTDRQNKAYKEAMEALKENPTIDLENSYVPLDNQYKGIRVDEHPEYLHDKVWATATYNNDLNGIKTNDIMLGVYIPDEEGTGLGMELGYALSQGKYVLLVIPDEDYGKPISLMSWGVSDNVIKMSQLKDFNFNKPRFDFYEGAVY
modifications: PDTT0 enzyme mutant
Specific activity ([1]; dAMP + C ⇄ dCMP + A): 23.7 nanomoles of deoxynucleotides synthesized per min per mg of protein | Specific activity ([1]; dAMP + Hx ⇄ dIMP + A): <0.1 nanomoles of deoxynucleotides synthesized per min per mg of protein | Specific activity ([1]; dCDP + A ⇄ dADP + C): <0.1 nanomoles of deoxynucleotides synthesized per min per mg of protein | Specific activity ([1]; dCMP + A ⇄ dAMP + C): 46.3 nanomoles of deoxynucleotides synthesized per min per mg of protein | Specific activity ([1]; dCMP + T ⇄ dTMP + C): <0.1 nanomoles of deoxynucleotides synthesized per min per mg of protein | Specific activity ([1]; dCTP + A ⇄ dATP + C): <0.1 nanomoles of deoxynucleotides synthesized per min per mg of protein | Specific activity ([1]; dGMP + A ⇄ dAMP + G): 49 nanomoles of deoxynucleotides synthesized per min per mg of protein

B5: PDTT1: NDT mutant R13 G92 T93 S123 K157, SEQ ID NO:9 (protein)
chain: MPKKTIYFGAGWRTDRQNKAYKEAMEALKENPTIDLENSYVPLDNQYKGIRVDEHPEYLHDKVWATATYNNDLNGIKTNDIMLGVYIPDEEGTGLGMELGYALSQGKYVLLVIPDEDYGKPISLMSWGVSDNVIKMSQLKDFNFNKPRFDFYEGAVK
modifications: PDTT1 enzyme mutant
Specific activity ([1]; dADP + C ⇄ dCDP + A): 12 nanomoles of deoxynucleotides synthesized per min per mg of protein | Specific activity ([1]; dADP + Hx ⇄ dIDP + A): <0.1 nanomoles of deoxynucleotides synthesized per min per mg of protein | Specific activity ([1]; dAMP + C ⇄ dCMP + A): 5 nanomoles of deoxynucleotides synthesized per min per mg of protein | Specific activity ([1]; dAMP + Hx ⇄ dIMP + A): <0.1 nanomoles of deoxynucleotides synthesized per min per mg of protein | Specific activity ([1]; dATP + C ⇄ dCTP + A): 1 nanomoles of deoxynucleotides synthesized per min per mg of protein | Specific activity ([1]; dATP + Hx ⇄ dITP + A): <0.1 nanomoles of deoxynucleotides synthesized per min per mg of protein | Specific activity ([1]; dCDP + A ⇄ dADP + C): 31 nanomoles of deoxynucleotides synthesized per min per mg of protein | Specific activity ([1]; dCDP + U ⇄ dUDP + C (U used as acceptor base instead of T)): 6 nanomoles of deoxynucleotides synthesized per min per mg of protein | Specific activity ([1]; dCMP + A ⇄ dAMP + C): 78 nanomoles of deoxynucleotides synthesized per min per mg of protein | Specific activity ([1]; dCMP + T ⇄ dTMP + C): <0.1 nanomoles of deoxynucleotides synthesized per min per mg of protein | Specific activity ([1]; dCTP + A ⇄ dATP + C): 10 nanomoles of deoxynucleotides synthesized per min per mg of protein | Specific activity ([1]; dCTP + T ⇄ dTTP + C): 1 nanomoles of deoxynucleotides synthesized per min per mg of protein | Specific activity ([1]; dGDP + A ⇄ dADP + G): 15 nanomoles of deoxynucleotides synthesized per min per mg of protein | Specific activity ([1]; dGMP + A ⇄ dAMP + G): 32 nanomoles of deoxynucleotides synthesized per min per mg of protein | Specific activity ([1]; dGTP + A ⇄ dATP + G): 25 nanomoles of deoxynucleotides synthesized per min per mg of protein

B6: NDTWT: wild-type nucleoside deoxyribosyltransferase of Lactobacillus leichmannii, SEQ ID NO:1 (F13E91D92V93N123Y157) (protein, listed as Lactobacillus leichmannii)
chain: MPKKTIYFGAGWFTDRQNKAYKEAMEALKENPTIDLENSYVPLDNQYKGIRVDEHPEYLHDKVWATATYNNDLNGIKTNDIMLGVYIPDEEDVGLGMELGYALSQGKYVLLVIPDEDYGKPINLMSWGVSDNVIKMSQLKDFNFNKPRFDFYEGAVY
Specific activity ([1]; dCMP + A ⇄ dAMP + C): 0.1 nanomoles of deoxynucleotides synthesized per min per mg of protein

B7: PDTM1: NDT single mutant D92S, SEQ ID NO:3 (protein)
chain: MPKKTIYFGAGWFTDRQNKAYKEAMEALKENPTIDLENSYVPLDNQYKGIRVDEHPEYLHDKVWATATYNNDLNGIKTNDIMLGVYIPDEESVGLGMELGYALSQGKYVLLVIPDEDYGKPINLMSWGVSDNVIKMSQLKDFNFNKPRFDFYEGAVY
modifications: PDTM1 enzyme mutant
Specific activity ([1]; dCMP + A ⇄ dAMP + C): 1.8 nanomoles of deoxynucleotides synthesized per min per mg of protein

B8: PDTM2: NDT double mutant D92S, N123S, SEQ ID NO:4 (protein)
chain: MPKKTIYFGAGWFTDRQNKAYKEAMEALKENPTIDLENSYVPLDNQYKGIRVDEHPEYLHDKVWATATYNNDLNGIKTNDIMLGVYIPDEESVGLGMELGYALSQGKYVLLVIPDEDYGKPISLMSWGVSDNVIKMSQLKDFNFNKPRFDFYEGAVY
modifications: PDTM2 enzyme mutant
Specific activity ([1]; dCMP + A ⇄ dAMP + C): 1.7 nanomoles of deoxynucleotides synthesized per min per mg of protein
